Measurements from US20200115416A1 (REGENTS OF THE UNIVERSITY OF MINNESOTA, published 2020).
Square brackets hold non-standard residues; d marks the D form. hPhe = N[C@@H](CCc1ccccc1)C(=O)O; Nle = CCCC[C@H](N)C(=O)O

B1: c[Pro-Arg-Phe-Phe-Asn-Glu-Phe-DPro] (peptide)
peptide: cyclo(PRFFNEF[dP])
SMILES: N=C(N)NCCC[C@@H]1NC(=O)[C@@H]2CCCN2C(=O)[C@H]2CCCN2C(=O)[C@H](Cc2ccccc2)NC(=O)[C@H](CCC(=O)O)NC(=O)[C@H](CC(N)=O)NC(=O)[C@H](Cc2ccccc2)NC(=O)[C@H](Cc2ccccc2)NC1=O
B2: c[Pro-Arg-Phe-Phe-Asn-Lys-Phe-DPro] (peptide)
peptide: cyclo(PRFFNKF[dP])
SMILES: N=C(N)NCCC[C@@H]1NC(=O)[C@@H]2CCCN2C(=O)[C@H]2CCCN2C(=O)[C@H](Cc2ccccc2)NC(=O)[C@H](CCCCN)NC(=O)[C@H](CC(N)=O)NC(=O)[C@H](Cc2ccccc2)NC(=O)[C@H](Cc2ccccc2)NC1=O
B3: c[Pro-Arg-Phe-Phe-Trp-Ala-Phe-DPro] (peptide)
peptide: cyclo(PRFFWAF[dP])
SMILES: C[C@@H]1NC(=O)[C@H](Cc2c[nH]c3ccccc23)NC(=O)[C@H](Cc2ccccc2)NC(=O)[C@H](Cc2ccccc2)NC(=O)[C@H](CCCNC(=N)N)NC(=O)[C@@H]2CCCN2C(=O)[C@H]2CCCN2C(=O)[C@H](Cc2ccccc2)NC1=O
B4: c[Pro-Arg-Phe-Phe-Asn-Ala-Ala-DPro] (peptide)
peptide: cyclo(PRFFNAA[dP])
SMILES: C[C@@H]1NC(=O)[C@H](CC(N)=O)NC(=O)[C@H](Cc2ccccc2)NC(=O)[C@H](Cc2ccccc2)NC(=O)[C@H](CCCNC(=N)N)NC(=O)[C@@H]2CCCN2C(=O)[C@H]2CCCN2C(=O)[C@H](C)NC1=O
B5: c[Pro-Arg-Phe-Phe-Asn-Phe-Phe-DPro] (peptide)
peptide: cyclo(PRFFNFF[dP])
SMILES: N=C(N)NCCC[C@@H]1NC(=O)[C@@H]2CCCN2C(=O)[C@H]2CCCN2C(=O)[C@H](Cc2ccccc2)NC(=O)[C@H](Cc2ccccc2)NC(=O)[C@H](CC(N)=O)NC(=O)[C@H](Cc2ccccc2)NC(=O)[C@H](Cc2ccccc2)NC1=O
B6: c[Pro-Arg-Phe-Phe-Thr-Ala-Phe-DPro] (peptide)
peptide: cyclo(PRFFTAF[dP])
SMILES: C[C@@H]1NC(=O)[C@H]([C@@H](C)O)NC(=O)[C@H](Cc2ccccc2)NC(=O)[C@H](Cc2ccccc2)NC(=O)[C@H](CCCNC(=N)N)NC(=O)[C@@H]2CCCN2C(=O)[C@H]2CCCN2C(=O)[C@H](Cc2ccccc2)NC1=O
B7: c[Pro-Arg-Phe-Phe-Asn-His-Phe-DPro] (peptide)
peptide: cyclo(PRFFNHF[dP])
SMILES: N=C(N)NCCC[C@@H]1NC(=O)[C@@H]2CCCN2C(=O)[C@H]2CCCN2C(=O)[C@H](Cc2ccccc2)NC(=O)[C@H](Cc2c[nH]cn2)NC(=O)[C@H](CC(N)=O)NC(=O)[C@H](Cc2ccccc2)NC(=O)[C@H](Cc2ccccc2)NC1=O
B8: c[Pro-Arg-Phe-Phe-Asn-Leu-Phe-DPro] (peptide)
peptide: cyclo(PRFFNLF[dP])
SMILES: CC(C)C[C@@H]1NC(=O)[C@H](CC(N)=O)NC(=O)[C@H](Cc2ccccc2)NC(=O)[C@H](Cc2ccccc2)NC(=O)[C@H](CCCNC(=N)N)NC(=O)[C@@H]2CCCN2C(=O)[C@H]2CCCN2C(=O)[C@H](Cc2ccccc2)NC1=O
B9: c[Pro-Arg-Phe-Phe-Asn-Gly-Phe-DPro] (peptide)
peptide: cyclo(PRFFNGF[dP])
SMILES: N=C(N)NCCC[C@@H]1NC(=O)[C@@H]2CCCN2C(=O)[C@H]2CCCN2C(=O)[C@H](Cc2ccccc2)NC(=O)CNC(=O)[C@H](CC(N)=O)NC(=O)[C@H](Cc2ccccc2)NC(=O)[C@H](Cc2ccccc2)NC1=O
B10: c[Pro-Arg-Phe-Phe-Asn-Asp-Phe-DPro] (peptide)
peptide: cyclo(PRFFNDF[dP])
SMILES: N=C(N)NCCC[C@@H]1NC(=O)[C@@H]2CCCN2C(=O)[C@H]2CCCN2C(=O)[C@H](Cc2ccccc2)NC(=O)[C@H](CC(=O)O)NC(=O)[C@H](CC(N)=O)NC(=O)[C@H](Cc2ccccc2)NC(=O)[C@H](Cc2ccccc2)NC1=O
B11: c[Pro-Arg-Phe-Phe-His-Ala-Phe-DPro] (peptide)
peptide: cyclo(PRFFHAF[dP])
SMILES: C[C@@H]1NC(=O)[C@H](Cc2c[nH]cn2)NC(=O)[C@H](Cc2ccccc2)NC(=O)[C@H](Cc2ccccc2)NC(=O)[C@H](CCCNC(=N)N)NC(=O)[C@@H]2CCCN2C(=O)[C@H]2CCCN2C(=O)[C@H](Cc2ccccc2)NC1=O
B12: c[Pro-Arg-Phe-Phe-Phe-Ala-Phe-DPro] (peptide)
peptide: cyclo(PRFFFAF[dP])
SMILES: C[C@@H]1NC(=O)[C@H](Cc2ccccc2)NC(=O)[C@H](Cc2ccccc2)NC(=O)[C@H](Cc2ccccc2)NC(=O)[C@H](CCCNC(=N)N)NC(=O)[C@@H]2CCCN2C(=O)[C@H]2CCCN2C(=O)[C@H](Cc2ccccc2)NC1=O

The binders below were run against T1, mouse melanocortin-1 receptor (mouse, UniProt Q01727 1-315) (assay: cell-based or functional assay).
T1 sequence (Q01727 whole entry): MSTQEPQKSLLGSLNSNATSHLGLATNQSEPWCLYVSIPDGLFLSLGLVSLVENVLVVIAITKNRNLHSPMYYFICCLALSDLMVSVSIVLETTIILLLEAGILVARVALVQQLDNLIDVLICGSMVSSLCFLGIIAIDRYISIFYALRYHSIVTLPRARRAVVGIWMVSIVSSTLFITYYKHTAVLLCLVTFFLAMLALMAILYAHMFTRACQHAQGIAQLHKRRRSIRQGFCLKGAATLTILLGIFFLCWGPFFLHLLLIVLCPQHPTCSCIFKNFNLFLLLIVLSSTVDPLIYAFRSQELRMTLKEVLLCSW
With B1 the “% maximal NDP-MSH response at 100 µM (cAMP AlphaScreen)” value (from here on “% maximal NDP-MSH response at 100 µM”) was 60%. In the case of B2, the “% maximal NDP-MSH response at 100 µM” value is reported as 60%. With B3 the “% maximal NDP-MSH response at 100 µM” value was 80%. With B4 the “agonist EC50 (cAMP AlphaScreen)” value was greater than 100 µM. With B5 the “% maximal NDP-MSH response at 100 µM” value was 70%. B6 was tested, and the “agonist EC50 (cAMP AlphaScreen)” value was greater than 100 µM. For B7, the “agonist EC50 (cAMP AlphaScreen)” value was 2.6 µM. For B8, the “% maximal NDP-MSH response at 100 µM” value was 80%. For B9, the “agonist EC50 (cAMP AlphaScreen)” value was greater than 100 µM. In the case of B10, the “% maximal NDP-MSH response at 100 µM” value is reported as 65%. With cyclo(PRFF[Nle]AF[dP]) [c[Pro-Arg-Phe-Phe-Nle-Ala-Phe-DPro]] the “agonist EC50 (cAMP AlphaScreen)” value was greater than 100 µM. For B11, the “agonist EC50 (cAMP AlphaScreen)” value was greater than 100 µM. With cyclo(PRFFVAF[dP]) [c[Pro-Arg-Phe-Phe-Val-Ala-Phe-DPro]] the “% maximal NDP-MSH response at 100 µM” value was 55%. For B12, the “agonist EC50 (cAMP AlphaScreen)” value was greater than 100 µM.

The binders below were run against mouse melanocortin-3 receptor (mouse, UniProt P33033 1-323) (assay: cell-based or functional assay).
Chain of mouse melanocortin-3 receptor (P33033 whole entry): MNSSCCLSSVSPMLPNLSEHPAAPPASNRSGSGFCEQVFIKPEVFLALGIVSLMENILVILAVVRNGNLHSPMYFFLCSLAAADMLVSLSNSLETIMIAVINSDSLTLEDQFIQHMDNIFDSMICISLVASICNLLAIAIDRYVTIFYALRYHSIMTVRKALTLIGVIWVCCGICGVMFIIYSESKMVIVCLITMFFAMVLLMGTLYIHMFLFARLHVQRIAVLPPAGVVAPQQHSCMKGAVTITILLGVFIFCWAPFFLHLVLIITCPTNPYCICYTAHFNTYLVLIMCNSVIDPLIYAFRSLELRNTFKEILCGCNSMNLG
In the case of B1, the “agonist EC50 (cAMP AlphaScreen)” value is reported as greater than 100 µM and the “antagonist pA2 (Schild, agonist NDP-MSH)” value is reported as less than 5.5. B2 was tested, and the “% maximal NDP-MSH response at 100 µM” value was 45% and the “antagonist pA2 (Schild, agonist NDP-MSH)” value was less than 5.5. For B3, the “% maximal NDP-MSH response at 100 µM” value was 40% and the “antagonist pA2 (Schild, agonist NDP-MSH)” value was 5.7. For B4, the “agonist EC50 (cAMP AlphaScreen)” value was greater than 100 µM and the “antagonist pA2 (Schild, agonist NDP-MSH)” value was 6.1. For B5, the “% maximal NDP-MSH response at 100 µM” value was 35% and the “antagonist pA2 (Schild, agonist NDP-MSH)” value was 5.72. With B6 the “agonist EC50 (cAMP AlphaScreen)” value was greater than 100 µM and the “antagonist pA2 (Schild, agonist NDP-MSH)” value was 6.4. B7 was tested, and the “agonist EC50 (cAMP AlphaScreen)” value was greater than 100 µM and the “antagonist pA2 (Schild, agonist NDP-MSH)” value was less than 5.5. With B8 the “% maximal NDP-MSH response at 100 µM” value was 25% and the “antagonist pA2 (Schild, agonist NDP-MSH)” value was less than 5.5. In the case of B9, the “agonist EC50 (cAMP AlphaScreen)” value is reported as greater than 100 µM and the “antagonist pA2 (Schild, agonist NDP-MSH)” value is reported as less than 5.5. For B10, the “agonist EC50 (cAMP AlphaScreen)” value was greater than 100 µM and the “antagonist pA2 (Schild, agonist NDP-MSH)” value was less than 5.5. With cyclo(PRFF[Nle]AF[dP]) [c[Pro-Arg-Phe-Phe-Nle-Ala-Phe-DPro]] the “agonist EC50 (cAMP AlphaScreen)” value was greater than 100 µM and the “antagonist pA2 (Schild, agonist NDP-MSH)” value was less than 5.5. In the case of B11, the “agonist EC50 (cAMP AlphaScreen)” value is reported as greater than 100 µM and the “antagonist pA2 (Schild, agonist NDP-MSH)” value is reported as 6.46. With cyclo(PRFFVAF[dP]) [c[Pro-Arg-Phe-Phe-Val-Ala-Phe-DPro]] the “agonist EC50 (cAMP AlphaScreen)” value was greater than 100 µM and the “antagonist pA2 (Schild, agonist NDP-MSH)” value was less than 5.5. B12 was tested, and the “agonist EC50 (cAMP AlphaScreen)” value was greater than 100 µM and the “antagonist pA2 (Schild, agonist NDP-MSH)” value was less than 5.5.

These binders were tested against mouse melanocortin-4 receptor (mouse, UniProt P56450 1-332) (assay: cell-based or functional assay).
Chain of mouse melanocortin-4 receptor (P56450 whole entry): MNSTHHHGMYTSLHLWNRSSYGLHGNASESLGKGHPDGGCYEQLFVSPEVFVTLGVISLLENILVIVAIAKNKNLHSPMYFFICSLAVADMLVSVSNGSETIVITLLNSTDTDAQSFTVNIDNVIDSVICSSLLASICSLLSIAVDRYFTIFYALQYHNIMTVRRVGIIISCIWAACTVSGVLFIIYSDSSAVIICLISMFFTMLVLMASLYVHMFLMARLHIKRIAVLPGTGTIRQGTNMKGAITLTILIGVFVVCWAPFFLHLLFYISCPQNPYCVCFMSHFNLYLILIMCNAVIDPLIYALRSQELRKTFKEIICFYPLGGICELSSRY
In the case of B1, the “agonist EC50 (cAMP AlphaScreen)” value is reported as greater than 100 µM and the “antagonist pA2 (Schild, agonist NDP-MSH)” value is reported as less than 5.5. For B2, the “agonist EC50 (cAMP AlphaScreen)” value was greater than 100 µM and the “antagonist pA2 (Schild, agonist NDP-MSH)” value was 6.11. For B3, the “% maximal NDP-MSH response at 100 µM” value was 50% and the “antagonist pA2 (Schild, agonist NDP-MSH)” value was 6.81. In the case of B4, the “agonist EC50 (cAMP AlphaScreen)” value is reported as greater than 100 µM and the “antagonist pA2 (Schild, agonist NDP-MSH)” value is reported as 8.16. With B5 the “% maximal NDP-MSH response at 100 µM” value was 35% and the “antagonist pA2 (Schild, agonist NDP-MSH)” value was 5.71. B6 was tested, and the “agonist EC50 (cAMP AlphaScreen)” value was greater than 100 µM and the “antagonist pA2 (Schild, agonist NDP-MSH)” value was 7.76. For B7, the “agonist EC50 (cAMP AlphaScreen)” value was greater than 100 µM and the “antagonist pA2 (Schild, agonist NDP-MSH)” value was 6.07. In the case of B8, the “% maximal NDP-MSH response at 100 µM” value is reported as 25% and the “antagonist pA2 (Schild, agonist NDP-MSH)” value is reported as 6.18. B9 was tested, and the “agonist EC50 (cAMP AlphaScreen)” value was greater than 100 µM and the “antagonist pA2 (Schild, agonist NDP-MSH)” value was 6.1. With B10 the “agonist EC50 (cAMP AlphaScreen)” value was greater than 100 µM and the “antagonist pA2 (Schild, agonist NDP-MSH)” value was less than 5.5. With cyclo(PRFF[Nle]AF[dP]) [c[Pro-Arg-Phe-Phe-Nle-Ala-Phe-DPro]] the “agonist EC50 (cAMP AlphaScreen)” value was greater than 100 µM and the “antagonist pA2 (Schild, agonist NDP-MSH)” value was 6.9. For cyclo(PRFFVAF[dP]) [c[Pro-Arg-Phe-Phe-Val-Ala-Phe-DPro]], the “agonist EC50 (cAMP AlphaScreen)” value was greater than 100 µM and the “antagonist pA2 (Schild, agonist NDP-MSH)” value was 5.9. For B12, the “agonist EC50 (cAMP AlphaScreen)” value was greater than 100 µM and the “antagonist pA2 (Schild, agonist NDP-MSH)” value was 6.63.

The binders below were run against mouse melanocortin-5 receptor (mouse, UniProt P41149 1-325) (assay: cell-based or functional assay).
Chain of mouse melanocortin-5 receptor (P41149 whole entry): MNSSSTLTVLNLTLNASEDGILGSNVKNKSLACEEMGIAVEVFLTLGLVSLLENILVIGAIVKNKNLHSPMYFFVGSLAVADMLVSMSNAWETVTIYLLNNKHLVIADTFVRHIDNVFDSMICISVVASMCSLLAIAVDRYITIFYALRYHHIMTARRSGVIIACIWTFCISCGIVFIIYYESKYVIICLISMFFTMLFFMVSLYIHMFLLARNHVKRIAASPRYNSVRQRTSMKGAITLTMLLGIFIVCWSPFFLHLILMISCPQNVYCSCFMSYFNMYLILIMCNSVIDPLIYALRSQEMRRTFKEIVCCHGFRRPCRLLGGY
With B1 the “agonist EC50 (cAMP AlphaScreen)” value was greater than 100 µM. B2 was tested, and the “% maximal NDP-MSH response at 100 µM” value was 45%. For B3, the “inverse agonist apparent potency” value was 0.15 µM and the “inverse agonist, % decrease from basal cAMP” value (shortened to “inverse agonist, % decrease”) was -20%. In the case of B4, the “inverse agonist, % change from basal cAMP at 100 µM” value (“inverse agonist, % change” below) is reported as -25%. In the case of B5, the “% maximal NDP-MSH response at 100 µM” value is reported as 25%. B6 was tested, and the “inverse agonist apparent potency” value was 0.05 µM and the “inverse agonist, % decrease” value was -20%. B7 was tested, and the “agonist EC50 (cAMP AlphaScreen)” value was greater than 100 µM. B8 was tested, and the “agonist EC50 (cAMP AlphaScreen)” value was greater than 100 µM. With B9 the “inverse agonist, % change” value was -35%. In the case of B10, the “inverse agonist, % change” value is reported as -25%. cyclo(PRFF[Nle]AF[dP]) [c[Pro-Arg-Phe-Phe-Nle-Ala-Phe-DPro]] was tested, and the “agonist EC50 (cAMP AlphaScreen)” value was greater than 100 µM. For B11, the “inverse agonist apparent potency” value was 0.01 µM and the “inverse agonist, % decrease” value was -15%. cyclo(PRFFVAF[dP]) [c[Pro-Arg-Phe-Phe-Val-Ala-Phe-DPro]] was tested, and the “inverse agonist apparent potency” value was 0.51 µM and the “inverse agonist, % decrease” value was -25%. With B12 the “agonist EC50 (cAMP AlphaScreen)” value was greater than 100 µM.

Target: T1, mouse melanocortin-1 receptor
Experiment: cell-based or functional assay
Remark: another data set of the same source
With cyclo(PRF[hPhe]NAF[dP]) [c[Pro-Arg-Phe-hPhe-Asn-Ala-Phe-DPro]] the “% receptor stimulation at 100 µM (cAMP AlphaScreen)” value was 35%.
